Source: US7122187 (IDEC PHARMACEUTICALS, dated 2006)
Substitutions are numbered along the chain they refer to.

T1: human gp39 (cell surface) (human, UniProt P29965 1-261)
T1 construct: whole, on cells; this was read as mgp39-CHO (membrane gp39); also called CD40 ligand; CD40L
T1 sequence (looked up): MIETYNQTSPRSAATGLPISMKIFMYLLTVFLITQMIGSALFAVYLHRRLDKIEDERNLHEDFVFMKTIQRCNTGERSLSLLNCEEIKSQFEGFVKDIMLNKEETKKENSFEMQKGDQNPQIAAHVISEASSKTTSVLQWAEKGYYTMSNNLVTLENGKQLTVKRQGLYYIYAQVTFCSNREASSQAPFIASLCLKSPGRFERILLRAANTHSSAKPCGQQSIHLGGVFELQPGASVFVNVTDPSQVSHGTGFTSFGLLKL

B1: humanized 24-31 (version 1) (antibody, V domains shown)
VH: EVQLQESGPGLVKPSETLSLTCTVSGDSITNGFWIWIRKPPGNKLEYMGYISYSGSTYYNPSLKSRISISRDTSKNQFSLKLSSVTAADTGVYYCACRSYGRTPYYFDFWGQGTTLTVSS
VL: DIVMTQSPSFLSASVGDRVTITCKASQNVITAVAWYQQKPGKSPKLLIYSASNRYTGVPDRFSGSGSGTDFTLTISSLQPEDFADYFCQQYNSYPYTFGGGTKLEIK
notes: also called h24-31; humanized Version 1
B2: murine antibody 24-31 (antibody, mouse IgG1, V domains shown)
VH: EVQLQESGPSLVKPSQTLSLTCSVTGDSITNGFWIWIRKFPGNKLEYMGYISYSGSTYYNPSLKSRISITRDTSQNQFYLQLNSVTTEDTGTYYCACRSYGRTPYYFDFWGQGTTLTVSS
VL: B1 VL with P8Q, S9K, L11M, A13T, T20S, K42Q, S77N, L78M, P80S, F83L
notes: Murine IgG1 from hybridoma; also called anti-gp39 24-31 mAb; murine 24-31
B3: humanized 24-31 (version 2) (antibody, V domains shown)
VH: B1 VH
VL: DIVMTQSPDSLAVSLGERATINCKASQNVITAVAWYQQKPGQSPKLLIYSASNRYTGVPDRFSGSGSGTDFTLTISSLQAEDVADYFCQQYNSYPYTFGGGTKLEIK
notes: It was expressed from N5KG1 with human kappa and gamma 1 constant regions; also called humanized Version 2; #2 VL with #1 VH

Biological target: T1, human gp39 (cell surface)
Test: Scatchard analysis, 125I-labelled antibody competed with unlabelled antibody on gp39-CHO cells
Procedure: ^125I-labeled antibody was mixed and incubated with non-labeled antibody in a dilution series. Based on the total amount of bound antibody and the amount of free antibody, a Scatchard plot was generated from a […] graph. The total antibody concentration was based on a standard size of 75 kD for one active site.
The Kd was calculated by generating a "best fit" line. The inverse of the slope of the curve is the Kd. The correlation coefficient, r^2, was also computed.

Kd | Binder
5.6 nM | B1
8.51 nM | B2
14 nM | B3
